Three molecules from US20180237527A1 (METIS PRECISION MEDICINE SB S R L, published 2018) can be followed below.

Sequences and labels used below:
B1: DCD-MvDN30.2 (Dual Constant Domain Fab with the duplicated constant domains swapped reciprocally) (Fab)
heavy: QVQLQQPGTELVKPGASVKLSCKASGYTFTSYWIHWVKQRPGQGLEWIGEINPSSGRTNYNEKFKNKVTVTVDKSSTTAYMQLSNLTSEDSAVYYCASRGYWGQGTTLTVSSASTKGPSVFPLAPSSKSTSGGTAALGCLVKDYFPEPVTVSWNSGALTSGVHTFPAVLQSSGLYSLSSVVTVPSSSLGTQTYICNVNHKPSNTKVDKKVEPKSCTVAAPSVFIFPPSDEQLKSGTASVVCLLNNFYPREAKVQWKVDNALQSGNSQESVTEQDSKDSTYSLSSTLTLSKADYEKHKVYACEVTHQGLSSPVTKSFNRGEC
light: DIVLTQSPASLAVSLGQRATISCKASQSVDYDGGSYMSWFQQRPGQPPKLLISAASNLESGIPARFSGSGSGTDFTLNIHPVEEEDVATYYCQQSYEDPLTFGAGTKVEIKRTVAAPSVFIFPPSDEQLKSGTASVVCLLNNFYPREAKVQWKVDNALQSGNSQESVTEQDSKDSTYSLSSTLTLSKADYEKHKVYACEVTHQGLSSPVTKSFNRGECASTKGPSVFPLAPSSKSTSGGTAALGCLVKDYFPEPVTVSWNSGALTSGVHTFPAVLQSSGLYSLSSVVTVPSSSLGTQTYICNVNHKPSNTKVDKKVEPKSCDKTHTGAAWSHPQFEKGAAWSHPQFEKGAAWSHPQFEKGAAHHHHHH
notes: also called DCD-Fab
B2: chimerized DN30 Fab (MvDN30) (Fab)
heavy: QVQLQQPGTELVKPGASVKLSCKASGYTFTSYWIHWVKQRPGQGLEWIGEINPSSGRTNYNEKFKNKVTVTVDKSSTTAYMQLSNLTSEDSAVYYCASRGYWGQGTTLTVSSASTKGPSVFPLAPSSKSTSGGTAALGCLVKDYFPEPVTVSWNSGALTSGVHTFPAVLQSSGLYSLSSVVTVPSSSLGTQTYICNVNHKPSNTKVDKKVEPKSC
light: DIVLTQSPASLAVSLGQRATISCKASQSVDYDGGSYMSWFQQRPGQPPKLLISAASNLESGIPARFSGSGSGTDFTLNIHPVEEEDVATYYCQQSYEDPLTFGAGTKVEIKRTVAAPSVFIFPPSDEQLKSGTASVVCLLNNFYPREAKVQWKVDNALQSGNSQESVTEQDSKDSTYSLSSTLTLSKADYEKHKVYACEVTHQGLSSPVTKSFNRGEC
notes: also called chimeric MvDN30; chimeric DN30 Fab
B3: DCD-MvDN30.1 (Dual Constant Domain Fab with the duplicated constant domains in tandem) (Fab)
heavy: QVQLQQPGTELVKPGASVKLSCKASGYTFTSYWIHWVKQRPGQGLEWIGEINPSSGRTNYNEKFKNKVTVTVDKSSTTAYMQLSNLTSEDSAVYYCASRGYWGQGTTLTVSSASTKGPSVFPLAPSSKSTSGGTAALGCLVKDYFPEPVTVSWNSGALTSGVHTFPAVLQSSGLYSLSSVVTVPSSSLGTQTYICNVNHKPSNTKVDKKVEPKSCASTKGPSVFPLAPSSKSTSGGTAALGCLVKDYFPEPVTVSWNSGALTSGVHTFPAVLQSSGLYSLSSVVTVPSSSLGTQTYICNVNHKPSNTKVDKKVEPKSCDKTHTGAAWSHPQFEKGAAWSHPQFEKGAAWSHPQFEKGAAHHHHHH
light: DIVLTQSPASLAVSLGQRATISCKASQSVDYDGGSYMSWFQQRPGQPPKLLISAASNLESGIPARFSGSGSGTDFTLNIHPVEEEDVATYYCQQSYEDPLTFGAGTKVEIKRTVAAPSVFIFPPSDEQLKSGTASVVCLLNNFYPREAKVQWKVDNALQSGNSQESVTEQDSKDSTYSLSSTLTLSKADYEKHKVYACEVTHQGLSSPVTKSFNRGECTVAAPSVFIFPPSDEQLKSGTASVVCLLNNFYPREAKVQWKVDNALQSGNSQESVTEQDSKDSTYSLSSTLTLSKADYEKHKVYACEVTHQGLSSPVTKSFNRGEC
notes: also called DCD-Fab

T1 sequence (P08581 25-932, change not shown): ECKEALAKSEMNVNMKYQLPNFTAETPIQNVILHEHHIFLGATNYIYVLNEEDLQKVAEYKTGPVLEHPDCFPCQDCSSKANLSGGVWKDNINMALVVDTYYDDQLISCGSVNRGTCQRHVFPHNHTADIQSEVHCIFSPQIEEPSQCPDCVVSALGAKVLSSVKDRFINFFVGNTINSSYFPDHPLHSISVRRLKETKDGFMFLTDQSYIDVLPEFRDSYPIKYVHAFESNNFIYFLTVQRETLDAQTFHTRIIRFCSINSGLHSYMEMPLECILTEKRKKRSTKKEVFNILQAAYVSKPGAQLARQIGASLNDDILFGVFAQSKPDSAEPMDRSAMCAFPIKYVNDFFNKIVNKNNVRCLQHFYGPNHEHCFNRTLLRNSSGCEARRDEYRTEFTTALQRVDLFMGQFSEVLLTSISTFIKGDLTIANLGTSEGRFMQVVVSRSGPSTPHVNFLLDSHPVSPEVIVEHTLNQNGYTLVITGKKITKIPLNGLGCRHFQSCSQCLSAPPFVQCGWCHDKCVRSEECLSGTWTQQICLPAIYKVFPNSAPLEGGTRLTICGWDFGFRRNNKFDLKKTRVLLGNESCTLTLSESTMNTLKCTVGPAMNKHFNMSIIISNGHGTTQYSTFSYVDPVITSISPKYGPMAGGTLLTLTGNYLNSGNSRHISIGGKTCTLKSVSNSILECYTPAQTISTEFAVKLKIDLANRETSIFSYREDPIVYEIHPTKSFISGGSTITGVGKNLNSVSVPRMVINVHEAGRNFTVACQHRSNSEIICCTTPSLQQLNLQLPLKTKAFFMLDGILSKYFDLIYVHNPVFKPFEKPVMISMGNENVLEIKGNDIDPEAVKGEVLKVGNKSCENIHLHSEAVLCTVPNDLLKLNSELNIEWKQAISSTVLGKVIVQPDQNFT

This test concerns the target T1, Met-Fc chimera (human, UniProt P08581 25-932).
T1 construct: extracellular domain;domain: Fc domain; Bought from R&D Systems; also called Fc-Met; Met ectodomain; not shown: Fc domain derived from a human IgG
Description: ELISA, Met-Fc chimera in solid phase, antibody fragment in liquid phase, anti-strepTAG detection. As to the method:
Purified DCD-MvDN30.1 and DCD-MvDN30.2 were characterized for their ability to bind the Met receptor. To this end, the present inventors performed ELISA assays using Met ectodomain in solid phase and MvDN30, DCD-MvDN30.1 and DCD-MvDN30.2 in liquid phase.
[…] […] Data were analyzed and fit using Prism software (Graph Pad Software, San Diego, Calif.). Met-Fc chimera is a fusion protein wherein the Fc domain derived from a human IgG is fused in frame with the Met extracellular portion.
A general note: In an ELISA, binding on a coated surface is turned into a signal by an enzyme label.
B1: binding was characterised by a dissociation constant (Kd) of 0.13 nM.
The same measure for B2: 0.141 nM; for B3: 0.133 nM.
